Reference: patent US20220073922A1

Key:
human VEGF-121 (human) [1] = target: human VEGF-121 (human) (UniProt P15692); assay: receptor competition assay: His-tagged human VEGF-121 (0.1 nM) on beads with 1 nM human VEGF Receptor 1 and varied Lucentis; bound receptor fraction by flow cytometry, dose-response inhibition fit; blocked partner: VEGF Receptor 1
human VEGF-121 (human) [2] = target: human VEGF-121 (human) (UniProt P15692); assay: magnetic-bead partitioning binding assay read by flow cytometry; bound fraction against VEGF-121 concentration (1e-12 to about 1e-8 M), Langmuir one-site fit; how Lucentis was immobilised is not described
human VEGF-121 (human) [3] = target: human VEGF-121 (human) (UniProt P15692); assay: receptor competition assay: His-tagged human VEGF-121 (0.1 nM) on beads with 1 nM human VEGF Receptor 2 and varied Lucentis; bound receptor fraction by flow cytometry, dose-response inhibition fit; blocked partner: VEGF Receptor 2

human VEGF-121 (human), sequence (P15692 other isoform, or with tags, fused parts or gaps limits assumed): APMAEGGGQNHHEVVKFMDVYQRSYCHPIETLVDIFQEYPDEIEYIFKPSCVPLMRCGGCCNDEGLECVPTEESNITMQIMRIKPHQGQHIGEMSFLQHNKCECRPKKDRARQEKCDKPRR

IC50 (human VEGF-121 (human) [1]): 5.58 nM
Kd (human VEGF-121 (human) [2]): 1.69 nM
IC50 (human VEGF-121 (human) [3]): 2.36 nM
Substance: Lucentis® (Fab)
